Patent US20190119357A1, “MESSENGER RIBONUCLEIC ACIDS FOR THE PRODUCTION OF INTRACELLULAR BINDING POLYPEPTIDES AND METHODS OF USE THEREOF” (ModernaTX, Inc., priority 2015, published 2019)
“Also recorded” adds a separate entry of the source.

Key:
[1] = test system: HeLa cells; test: PARP-1 cleavage by SDS-PAGE and Western blotting after transfection of mRNAs encoding SQT-BH3 constructs; assay type: cell-based; settings: from anti-FLAG and anti-GFP Western blotting
Description: The cleavage of PARP-1 was detected by the appearance of a faster-migrating band and concomitant loss of the full-length band by SDS-PAGE and Western blotting. Western blotting with anti-actin antibodies served as a loading control.

[2] = target: T1, BCL-XL (Homo sapiens, UniProt Q07817); test: Co-immunoprecipitation after mRNA transfection; assay type: binding; settings: within two hours after mRNA transfection
T1 construct: endogenous in cells; host or cells: cells transfected with SQT-BH3 mRNA (HeLa by context)
T1 sequence (Q07817 whole entry): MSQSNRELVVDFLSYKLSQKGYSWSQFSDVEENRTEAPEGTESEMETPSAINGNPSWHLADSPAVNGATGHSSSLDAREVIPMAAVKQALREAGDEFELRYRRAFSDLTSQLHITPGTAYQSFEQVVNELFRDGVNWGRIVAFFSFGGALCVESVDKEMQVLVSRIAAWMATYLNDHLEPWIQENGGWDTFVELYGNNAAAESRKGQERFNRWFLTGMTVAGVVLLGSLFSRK

[3] = target: T2, BCL-2 (Homo sapiens, UniProt P10415); test: Co-immunoprecipitation after mRNA transfection; assay type: binding; settings: within two hours after mRNA transfection
T2 construct: endogenous in cells; host or cells: cells transfected with SQT-BH3 mRNA (HeLa by context)
T2 sequence (P10415 whole entry): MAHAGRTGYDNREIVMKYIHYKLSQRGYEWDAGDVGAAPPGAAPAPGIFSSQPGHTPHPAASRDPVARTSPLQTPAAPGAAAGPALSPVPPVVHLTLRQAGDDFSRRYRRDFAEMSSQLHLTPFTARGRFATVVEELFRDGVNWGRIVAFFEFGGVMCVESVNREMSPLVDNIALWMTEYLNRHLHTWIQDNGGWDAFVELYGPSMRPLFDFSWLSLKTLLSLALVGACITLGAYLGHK

[4] = target: T3, MCL-1 (Homo sapiens, UniProt Q07820); test: Co-immunoprecipitation in lysates of transfected HeLa cells; assay type: binding; settings: lysates of HeLa cells transfected with mRNAs
T3 construct: performed in lysates of HeLa cells transfected with mRNAs encoding SQT-BH3 constructs; endogenous in cells; host or cells: HeLa
T3 sequence (Q07820 whole entry): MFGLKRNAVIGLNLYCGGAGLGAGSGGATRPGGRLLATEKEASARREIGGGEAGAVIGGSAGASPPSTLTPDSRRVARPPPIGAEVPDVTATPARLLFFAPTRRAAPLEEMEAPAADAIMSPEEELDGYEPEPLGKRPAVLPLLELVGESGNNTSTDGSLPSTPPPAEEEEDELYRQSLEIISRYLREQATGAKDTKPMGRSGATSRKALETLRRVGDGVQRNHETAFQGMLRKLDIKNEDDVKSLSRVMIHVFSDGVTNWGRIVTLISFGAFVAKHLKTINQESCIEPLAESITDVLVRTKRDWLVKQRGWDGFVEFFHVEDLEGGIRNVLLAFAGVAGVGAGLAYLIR

[5] = test system: human melanoma cells (A375); test: Cell death after mRNA transfection; assay type: cell-based
[6] = test system: human hepatocellular carcinoma (Hep G2) cells; test: Cell death and morphology after mRNA transfection; assay type: cell-based
Description: A representative graph of the apoptotic ability of the SQT-BH3 constructs is shown in FIG. 2, showing the cell killing capacity of the SQT-BH3 constructs in Hep G2 cells.

[7] = test system: Hep3B cells; test: Cell death by YOYO-3 with MC3-formulated LNPs; assay type: cell-based
Experimental: The efficacy of mRNAs encoding SQT-BH3 constructs in inducing cell death was tested both in hepatocellular carcinoma cell lines as well as in primary hepatocytes using lipid nanoparticle (LNP)-formulated constructs. Hep3B cells were treated with varying doses (0.78 ng to 50 ng) of MC3-formulated LNPs in the presence of YOYO-3 (Life Technologies), a DNA dye that is taken up preferentially by dead cells that is used to measure the extent of cell death. MC3 lipid nanoparticles included MC3 50%, DSPC 10%, Cholesterol 38.5%, PEG-DMG 1.5%, N:P ˜5.5.

[8] = test system: HepG2 cells; test: Cell death by YOYO3 with MC3 LNPs; assay type: cell-based
[9] = test system: primary hepatocytes; test: Apoptosis induction by MC3 LNP-formulated mRNAs in primary hepatocytes cultured in vitro; assay type: cell-based
[10] = test system: HeLa cells; test: Efficiency of cell killing at low mRNA dose; assay type: cell-based; settings: approximately 0.78 ng mRNA
[11] = test system: Hep3B cells; test: Efficiency of cell killing at low mRNA dose and dose-response; assay type: cell-based
[12] = test system: Hep3B cells; test: Effect of insertion site position on apoptotic potency, YOYO3; assay type: cell-based; settings: Hep3B cells transfected with constructs
Experimental: BH3 domain was inserted into either the N-terminal insertion site, the loop 1 insertion site or the loop 2 insertion site of the SQT scaffold polypeptide. The mRNA sequences of these SQT-BID-BH3 constructs, with a FLAG epitope tag, are shown in SEQ ID NOs: 43-45, respectively. Corresponding mRNA sequences without the FLAG tag are shown in SEQ ID NOs: 46-48. Hep3B cells were transfected with the constructs and the apoptotic ability of the constructs was assessed using YOYO3 to determine cell death, as described above.

[13] = test system: Hep3B cells; test: Co-transfection of SQT-Bim-BH3 in MC3 LNPs with Bcl-2-like trap mRNA constructs, YOYO-3; assay type: cell-based; settings: 272 picomolar SQT-Bim-BH3 in MC3 LNPs, increasing amounts of trap mRNA, 12 hour time point
Description: YOYO-3 viability dye was used to assess apoptosis of cells.

[14] = test system: Hep3B cells; test: Anti-MCL1 mmRNA construct combined with SQT-PUMA-BH3, YOYO-3; assay type: cell-based; settings: 50 ng anti-MCL1 mRNA, 1.6 ng SQT-PUMA-BH3, L2K, 48 hours
Experimental: The anti-MCL1 mmRNA construct was tested for synergistic killing when combined with SQT-PUMA-BH3 in Hep3B cells. 20,000 Hep3B cells were seeded per well in 96-well plates. Each well was transfected with (a) 1.6 ng SQT-empty (“SQT-dummy”) or SQT-PUMA-BH3; and (b) 50 ng or 12.5 ng anti-MCL1 mRNA. Transfections of mRNA were done with Lipofectamine 2000 (L2K). After 48 hours, apoptosis measurements performed using YOYO-3 viability dye in an Incucyte instrument.

B1: SQT-Bim-BH3: mRNA (SEQ ID NO: 50, FLAG) encoding SQT scaffold with Bim BH3 domain in N-terminus (nucleic acid)
chain: ATGATCCCAAGAGACATGCGCCCCGAAATTTGGATCGCCCAGGAGCTCAGACGCATCGGAGATGAATTCAACGCATACTACGCTCGGCGGGGACTCTCAGAAGCGAAGCCTGCCACCCCCGAAATCCAGGAAATCGTCGACAAGGTCAAGCCGCAGCTTGAGGAAAAGACCAACGAGACTTACGGAAAACTGGAGGCCGTGCAGTATAAGACCCAAGTGTTGGCCTCCACCAACTACTACATTAAGGTCCGCGCCGGCGATAACAAGTACATGCACCTGAAGGTGTTCAATGGTCCTCCGGGACAGAACGCGGACAGGGTGCTGACTGGCTACCAAGTGGACAAGAACAAGGACGACGAGCTGACGGGCTTCGACTACAAGGATGATGATGACAAA
modifications: FLAG tag; Synthetic SQT-BIM-BH3 mRNA sequence with FLAG epitope tag
cell death of transfected cells [1]: underwent cell death
interaction with BCL-XL by co-immunoprecipitation [2]: able interact
interaction with BCL-2 by co-immunoprecipitation [3]: to a lesser extent
co-immunoprecipitation of MCL-1 [4]: able to co-immunoprecipitate
cell death [5]: caused rapid cell death almost immediately following transfection
cell death [6]: caused rapid cell death almost immediately following transfection; also recorded: underwent cell death almost immediately following transfection
cell morphology [6]: rounded-up cell morphology that is characteristic of apoptotic cells
cell killing (YOYO-3) ([7]; four-fold lower concentration): induced cell killing in Hep3B cells more efficiently than SQT-PUMA-BH3
apoptosis and cell death (YOYO-3) ([7]; relatively high concentration): both induced apoptosis and cell death; also recorded: kills Hep3B cells at higher concentrations
cell death (YOYO3 staining) [8]: lead to cell death; also recorded: kills HepG2 cells
efficacy and timing of cell death, comparison [8]: induced cell death with an increase in both efficacy and timing compared to SQT-PUMA-BH3
PARP-1 cleavage ([9]; LNPs): also induced PARP-1 cleavage in primary hepatocytes
apoptosis (YOYO-3 dye uptake and fluorescence) as a function of time ([9]; MC3-LNP-formulated): induce apoptosis
efficiency of cell killing [10]: killed both HeLa cells and Hep3B cells with greater efficiency than SQT-PUMA-BH3
efficiency of cell killing ([11]; Hep3B cells, approximately 0.78 ng mRNA): killed both HeLa cells and Hep3B cells with greater efficiency than SQT-PUMA-BH3
cell killing, dose-response curve ([11]; Hep3B, 12 hours after transfection, L2K lipid nanoparticles): more efficient cell killing by SQT-Bim-BH3 at low doses

B2: SQT(nt)BID-BH3: mRNA (SEQ ID NO: 43) encoding SQT with a single BID BH3 domain in the N-terminal insertion site (nucleic acid, listed as Homo sapiens)
chain: ATGATACCCAGACAAGAGGACATCATTCGTAACATCGCGCGACACCTGGCCCAGGTGGGGGACTCCATGGATCGATCAATCCCCCCTGGCTTATCCGAAGCTAAGCCAGCCACCCCTGAGATCCAAGAAATCGTCGACAAGGTCAAGCCCCAACTTGAAGAGAAAACTAATGAAACTTATGGTAAGCTCGAAGCCGTGCAATACAAGACTCAGGTCCTGGCGTCTACAAATTATTACATCAAGGTGAGGGCCGGGGACAATAAGTATATGCATCTGAAAGTCTTCAATGGCCCCCCTGGACAAAACGCAGATCGGGTGCTCACAGGATACCAGGTCGATAAAAATAAAGATGACGAACTTACTGGGTTTGATTATAAAGATGATGATGACAAG
modifications: (1)..(393) SQT(nt)BID-BH3 mRNA sequence with FLAG epitope tag
apoptotic potency (YOYO3 cell death) [12]: more potent than the SQT-BID-BH3 constructs with the BH3 domain inserted at either the loop 1 insertion site or the loop 2 insertion site

B3: Bcl-2 (D34A) del.C32: Bcl-2-like trap mRNA, SEQ ID NO: 82, FLAG tag (nucleic acid)
chain: ATGGCACACGCTGGTAGGACAGGCTACGACAACCGTGAGATTGTGATGAAGTATATTCACTATAAGCTGTCTCAAAGAGGCTACGAATGGGATGCGGGGGCCGTCGGGGCTGCCCCACCTGGTGCCGCCCCGGCTCCTGGGATTTTCTCTTCCCAGCCGGGACATACCCCTCATCCTGCCGCTTCTAGGGACCCTGTGGCAAGAACATCCCCTCTACAGACCCCTGCCGCCCCAGGTGCGGCTGCTGGCCCAGCGTTAAGTCCCGTTCCACCAGTCGTGCACCTTACCCTTAGGCAAGCGGGCGACGATTTCTCTAGGCGATACCGGAGGGACTTTGCCGAAATGTCATCACAGCTCCATCTTACTCCATTTACTGCCCGTGGCAGATTCGCCACCGTAGTGGAAGAACTCTTTCGAGACGGCGTAAATTGGGGGAGGATCGTGGCATTTTTCGAATTTGGAGGGGTTATGTGTGTGGAGAGCGTGAATCGGGAAATGTCTCCTCTGGTTGACAATATTGCCTTGTGGATGACCGAATATCTTAACAGGCACCTCCACACCTGGATTCAAGATAATGGTGGATGGGATGCGTTTGTGGAACTTTATGGGCCTTCAATGCGTGACTATAAGGACGACGACGACAAA
modifications: FLAG tag; Synthetic Bcl-2(D34A)del.C32 BH3 mRNA sequence with FLAG epitope tag
protection from apoptosis by SQT-Bim-BH3 (YOYO-3) [13]: all of the tested trap constructs except Bcl-2 (D34A) del.C32 were able to protect

B4: SQT.(nt)Mcl1.BH3.cv5: anti-MCL1 mmRNA construct, ORF amino acid SEQ ID NO: 108, nucleotide SEQ ID NO: 112, v5 tag (nucleic acid)
chain: ATGATCCCTAGGAAGGCCCTGGAGACCCTGAGGAGAGTGGGCGACGGAGTGCAGAGGAACCACGAGACCGCCTTCGGCCTGAGCGAGGCAAAGCCAGCAACACCCGAGATCCAGGAGATCGTGGATAAGGTGAAGCCCCAGCTGGAGGAGAAGACCAATGAGACATACGGCAAGCTGGAGGCCGTGCAGTATAAGACCCAGGTGCTGGCCTCCACAAACTACTATATCAAGGTGCGGGCCGGCGACAATAAGTACATGCACCTGAAGGTGTTCAACGGACCACCTGGACAGAATGCAGACAGGGTGCTGACCGGCTATCAGGTGGATAAGAACAAGGACGATGAGCTGACAGGCTTTGGCAAGCCAATCCCCAATCCTCTGCTGGGCCTGGATTCTACA
modifications: V5 tag; Synthetic SQT.(nt)Mcl1.BH3.cv5
apoptosis (YOYO-3) in combination with SQT-PUMA-BH3 ([14]; listed as anti-MCL1 construct): synergistic anti-apoptotic effect in combination with SQT-PUMA-BH3
apoptosis (YOYO-3) in combination with SQT-PUMA-BH3 ([14]; listed as anti-MCL1 mRNA construct): synergistic pro-apoptotic effects
